± gives the standard deviation of the averaged measurements.
Assay: total protein half-life in vivo (active degradation + dilution); higher = more stable protein
[1] = E. coli NCM3722 delta-clpP delta-lon delta-hslV, growth: N-lim chemostat, doubling time 6 h
[2] = E. coli NCM3722 delta-clpP, growth: N-lim chemostat, doubling time 6 h
[3] = E. coli NCM3722 delta-hslV, growth: N-lim chemostat, doubling time 6 h
[4] = E. coli NCM3722 delta-lon, growth: N-lim chemostat, doubling time 6 h
[5] = E. coli NCM3722 delta-smpB, growth: N-lim chemostat, doubling time 6 h
[6] = wild type E. coli NCM3722, growth: C-lim chemostat, doubling time 3 h
[7] = wild type E. coli NCM3722, growth: C-lim chemostat, doubling time 6 h
[8] = wild type E. coli NCM3722, growth: C-lim chemostat, doubling time 12 h
[9] = wild type E. coli NCM3722, growth: N-lim chemostat, doubling time 6 h
[10] = wild type E. coli NCM3722, growth: N-lim chemostat, doubling time 12 h
[11] = wild type E. coli NCM3722, growth: P-lim chemostat, doubling time 6 h
[12] = wild type E. coli NCM3722, growth: P-lim chemostat, doubling time 12 h

Sequence | total protein half-life in vivo [1] [h] | total protein half-life in vivo [2] [h] | total protein half-life in vivo [3] [h] | total protein half-life in vivo [4] [h] | total protein half-life in vivo [5] [h] | total protein half-life in vivo [6] [h] | total protein half-life in vivo [7] [h] | total protein half-life in vivo [8] [h] | total protein half-life in vivo [9] [h] | total protein half-life in vivo [10] [h] | total protein half-life in vivo [11] [h] | total protein half-life in vivo [12] [h]
MKNIIRTPETHPLTWRLRDDKQPVWLDEYRSKNGYEGARKALTGLSPDEIVNQVKDAGLKGRGGAGFSTGLKWSLMPKDESMNIRYLLCNADEMEPGTYKDRLLMEQLPHLLVEGMLISAFALKAYRGYIFLRGEYIEAAVNLRRAIAEATEAGLLGKNIMGTGFDFELFVHTGAGRYICGEETALINSLEGRRANPRSKPPFPATSGAWGKPTCVNNVETLCNVPAILANGVEWYQNISKSKDAGTKLMGFSGRVKNPGLWELPFGTTAREILEDYAGGMRDGLKFKAWQPGGAGTDFLTEAHLDLPMEFESIGKAGSRLGTALAMAVDHEINMVSLVRNLEEFFARESCGWCTPCRDGLPWSVKILRALERGEGQPGDIETLEQLCRFLGPGKTFCAHAPGAVEPLQSAIKYFREEFEAGIKQPFSNTHLINGIQPNLLKERW | 5.67 ± 0.18 | 5.27 ± 0.43 | 6.1 ± 0.97 | 5.74 ± 0.13 | 5.48 ± 0.17 | 2.73 ± 0.23 | 5.63 ± 0.092 | 9.99 ± 0.41 | 5.44 ± 0.24 | 9.884 ± 0.082 | 5.251 ± 0.0079 | 10.4 ± 0.9
MLDNVLRIATRQSPLALWQAHYVKDKLMASHPGLVVELVPMVTRGDVILDTPLAKVGGKGLFVKELEVALLENRADIAVHSMKDVPVEFPQGLGLVTICEREDPRDAFVSNNYDSLDALPAGSIVGTSSLRRQCQLAERRPDLIIRSLRGNVGTRLSKLDNGEYDAIILAVAGLKRLGLESRIRAALPPEISLPAVGQGAVGIECRLDDSRTRELLAALNHHETALRVTAERAMNTRLEGGCQVPIGSYAELIDGEIWLRALVGAPDGSQIIRGERRGAPQDAEQMGISLAEELLNNGAREILAEVYNGDAPA | 3.85 ± 1.1 | 4.24 ± 0.11 | 4.0338 ± 0.0026 | 4.87 ± 0.84 | 4.04 ± 0.045 | 2.81 ± 0.084 | 5.48 ± 0.92 |  | 4.12 ± 0.23 | 7.009 ± 0.051 | 5.475 ± 0.013 | 11.4 ± 0.85
MSESLHLTRNGSILEITLDRPKANAIDAKTSFEMGEVFLNFRDDPQLRVAIITGAGEKFFSAGWDLKAAAEGEAPDADFGPGGFAGLTEIFNLDKPVIAAVNGYAFGGGFELALAADFIVCADNASFALPEAKLGIVPDSGGVLRLPKILPPAIVNEMVMTGRRMGAEEALRWGIVNRVVSQAELMDNARELAQQLVNSAPLAIAALKEIYRTTSEMPVEEAYRYIRSGVLKHYPSVLHSEDAIEGPLAFAEKRDPVWKGR |  |  |  |  | 3.5 | 2.96 ± 0.038 | 4.96 ± 0.18 | 8.84 ± 0.32 |  | 5.66 | 5.25 ± 0.44 | 10.5 ± 0.97
MKKRVYLIAAVVSGALAVSGCTTNPYTGEREAGKSAIGAGLGSLVGAGIGALSSSKKDRGKGALIGAAAGAALGGGVGYYMDVQEAKLRDKMRGTGVSVTRSGDNIILNMPNNVTFDSSSATLKPAGANTLTGVAMVLKEYPKTAVNVIGYTDSTGGHDLNMRLSQQRADSVASALITQGVDASRIRTQGLGPANPIASNSTAEGKAQNRRVEITLSPL |  | 5.47 | 6.78 ± 0.46 | 6.16 ± 0.47 | 5.3 ± 0.5 | 2.78 ± 0.1 | 5.45 ± 0.11 |  | 5.81 ± 0.95 | 12.6 | 5.82 | 11.4 ± 0.82
MGRILLDLSNEVIKQLDDLEVQRNLPRADLLREAVDQYLINQSQTARTSVPGIWQGCEEDGVEYQRKLREEW [P0AFU6] |  | 6.89 |  |  |  |  |  |  |  |  |  | 
MPALDLIRPSVTAMRVIASVNADFARELKLPPHIRSLGLISADSDDVTYIAADEATKQAMVEVVYGRSLYAGAAHGPSPTAGEVLIMLGGPNPAEVRAGLDAMIAHIENGAAFQWANDAQDTAFLAHVVSRTGSYLSSTAGITLGDPMAYLVAPPLEATYGIDAALKSADVQLATYVPPPSETNYSAAFLTGSQAACKAACNAFTDAVLEIARNPIQRA | 6.04 ± 0.88 | 4.87 | 4.39 ± 0.31 | 4.68 ± 0.094 | 4.69 ± 0.1 | 3.11 ± 0.15 | 5.97 ± 0.72 | 11.95 ± 0.013 | 4.87 ± 0.41 | 7.99 | 6.1512 ± 0.003 | 11.4 ± 0.5
MRNKNIIMLLMSSLILSGCGPQPENKESQQQQPSTPTEQQVLAAQQAAIKEAEQSAAAAKALAQQEVQQYSDKQALQGRLQEAPTFARAAKAKATHIANPGTARYQQFDDNPVKQVAQNPLATFSLDVDTGSYANVRRFLNQGLLPPPDAVRVEEIVNYFPSDWDIKDKQSIPASKPIPFAMRYELAPAPWNEQRTLLKVDILAKDRKSEELPASNLVFLIDTSGSMISDERLPLIQSSLKLLVKELREQDNIAIVTYAGDSRIALPSISGSHKAEINAAIDSLDAEGSTNGGAGLELAYQQATKGFIKGGINRILLATDGDFNVGIDDPKSIESMVKKQRESGVTLSTFGVGNSNYNEAMMVRIADVGNGNYSYIDTLSEAQKVLNSEMRQMLITVAKDVKAQIEFNPAWVTEYRQIGYEKRQLRVEHFNNDNVDAGDIGAGKHITLLFELTLNGQKASIDKLRYAPDNKLAKSDKTKELAWLKIRWKYPQGKESQLVEFPLGPTINAPSEDMRFRAAVAAYGQKLRGSEYLNNTSWQQIKQWAQQAKGEDPQGYRAEFIRLIELADGVTDISQ |  | 4.02 ± 0.33 |  |  | 2.8393 ± 0.00061 |  |  |  |  |  |  | 
MSHVELQPGFDFQQAGKEVLAIERECLAELDQYINQNFTLACEKMFWCKGKVVVMGMGKSGHIGRKMAATFASTGTPSFFVHPGEAAHGDLGMVTPQDVVIAISNSGESSEITALIPVLKRLHVPLICITGRPESSMARAADVHLCVKVAKEACPLGLAPTSSTTATLVMGDALAVALLKARGFTAEDFALSHPGGALGRKLLLRVNDIMHTGDEIPHVKKTASLRDALLEVTRKNLGMTVICDDNMMIEGIFTDGDLRRVFDMGVDVRQLSIADVMTPGGIRVRPGILAVEALNLMQSRHITSVMVADGDHLLGVLHMHDLLRAGVV |  | 4.95 ± 1.9 | 4.36 ± 0.2 | 4.95 ± 0.44 | 4.2 ± 0.2 | 2.92 ± 0.13 | 5.27 ± 0.15 | 10.3 ± 2.3 | 4.29 ± 0.37 | 7.36 ± 0.41 | 5.827 ± 0.055 | 11.6 ± 0.54
